Test results published in patent US20160256527A1 (ONCOMED PHARMACEUTICALS, published 2016).

Target: T1, membrane bound single chain human GITRL trimer (human, UniProt Q9UNG2 29-177)
T1 construct: Expressed on the surface of transiently transfected HEK-293 cells (co-transfected with GFP); also called single chain hGITRL trimer
T1 sequence: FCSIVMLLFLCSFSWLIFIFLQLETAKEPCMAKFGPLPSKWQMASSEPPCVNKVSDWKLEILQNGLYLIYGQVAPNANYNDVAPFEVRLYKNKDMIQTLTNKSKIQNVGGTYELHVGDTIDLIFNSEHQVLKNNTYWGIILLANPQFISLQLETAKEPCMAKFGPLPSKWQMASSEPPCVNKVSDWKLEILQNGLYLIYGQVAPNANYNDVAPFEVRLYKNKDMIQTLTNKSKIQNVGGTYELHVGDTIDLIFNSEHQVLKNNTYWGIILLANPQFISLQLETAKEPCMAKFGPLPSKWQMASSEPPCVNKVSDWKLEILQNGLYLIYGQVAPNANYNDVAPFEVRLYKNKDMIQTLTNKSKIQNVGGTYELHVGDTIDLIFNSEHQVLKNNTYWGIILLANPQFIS
Test: flow cytometry, HEK-293 cells transfected with membrane bound single chain hGITRL trimer, PE anti-human Fc
Description: FIG. 2. FACS analysis of a membrane bound single chain GITRL trimer and soluble GITR. HEK293 cells were transiently transfected with an expression vector encoding a membrane bound single chain human GITRL trimer and a second expression vector encoding green fluorescent protein (GFP). Transfected cells were incubated with soluble human GITR-Fc fusion protein and analyzed by flow cytometry. Positive binding is determined by observation of cells within the inset box of the FACS plot.
To test the ability of a single chain hGITRL trimer to bind human GITR, binding studies were conducted. Human HEK-293 cells were transiently co-transfected with expression vectors encoding (1) the membrane bound single chain hGITRL trimer construct described above and (2) green fluorescent protein (GFP) as a transfection marker. Twenty-four hours post-transfection, the cells were incubated with hGITR-Fc or a control fusion protein. The cells were stained with a PE-conjugated anti-human Fc secondary antibody and analyzed by flow cytometry.

B1: soluble human GITR-Fc fusion protein (Fc fusion, UniProt Q9Y5U5 26-162, looked up)
chain: QRPTGGPGCGPGRLLLGTGTDARCCRVHTTRCCRDYPGEECCSEWDCMCVQPEFHCGDPCCTTCRHHPCPPGQGVQSQGKFSFGFQCIDCASGTFSGGHEGHCKPWTDCTQFGFLTVFPGNKTHNAVCVPGSPPAEP
notes: also called hGITR-Fc; not shown: Fc region
- binding result: binds
